We go through three variants from paper PMC11128890 (Frontiers in Cell and Developmental Biology, 2024).

B1: recombinant soluble integrin αvβ3 [not stated] / VEGF165 heparin-binding domain (HBD), wild type [human] (parent complex)
chain 1: FNLDVDSPAEYSGPEGSYFGFAVDFFVPSASSRMFLLVGAPKANTTQPGIVEGGQVLKCDWSSTRRCQPIEFDATGNRDYAKDDPLEFKSHQWFGASVRSKQDKILACAPLYHWRTEMKQEREPVGTCFLQDGTKTVEYAPCRSQDIDADGQGFCQGGFSIDFTKADRVLLGGPGSFYWQGQLISDQVAEIVSKYDPNVYSIKYNNQLATRTAQAIFDDSYLGYSVAVGDFNGDGIDDFVSGVPRAARTLGMVYIYDGKNMSSLYNFTGEQMAAYFGFSVAATDINGDDYADVFIGAPLFMDRGSDGKLQEVGQVSVSLQRASGDFQTTKLNGFEVFARFGSAIAPLGDLDQDGFNDIAIAAPYGGEDKKGIVYIFNGRSTGLNAVPSQILEGQWAARSMPPSFGYSMKGATDIDKNGYPDLIVGAFGVDRAILYRARPVITVNAGLEVYPSILNQDNKTCSLPGTALKVSCFNVRFCLKADGKGVLPRKLNFQVELLLDKLKQKGAIRRALFLYSRSPSHSKNMTISRGGLMQCEELIAYLRDESEFRDKLTPITIFMEYRLDYRTAADTTGLQPILNQFTPANISRQAHILLDCGEDNVCKPKLEVSVDSDQKKIYIGDDNPLTLIVKAQNQGEGAYEAELIVSIPLQADFIGVVRNNEALARLSCAFKTENQTRQVVCDLGNPMKAGTQLLAGLRFSVHQQSEMDTSVKFDLQIQSSNLFDKVSPVVSHKVDLAVLAAVEIRGVSSPDHVFLPIPNWEHKENPETEEDVGPVVQHIYELRNNGPSSFSKAMLHLQWPYKYNNNTLLYILHYDIDGPMNCTSDMEINPLRIKISSLQTTEKNDTVAGQGERDHLITKRDLALSEGDIHTLGCGVAQCLKIVCQVGRLDRGKSAILYVKSLLWTETFMNKENQNHSYSLKSSASFNVIEFPYKNLPIEDITNSTLVTTNVTWGIQP
chain 2: GPNICTTRGVSSCQQCLAVSPMCAWCSDEALPLGSPRCDLKENLLKDNCAPESIEFPVSEARVLEDRPLSDKGSGDSSQVTQVSPQRIALRLRPDDSKNFSIQVRQVEDYPVDIYYLMDLSYSMKDDLWSIQNLGTKLATQMRKLTSNLRIGFGAFVDKPVSPYMYISPPEALENPCYDMKTTCLPMFGYKHVLTLTDQVTRFNEEVKKQSVSRNRDAPEGGFDAIMQATVCDEKIGWRNDASHLLVFTTDAKTHIALDGRLAGIVQPNDGQCHVGSDNHYSASTTMDYPSLGLMTEKLSQKNINLIFAVTENVVNLYQNYSELIPGTTVGVLSMDSSNVLQLIVDAYGKIRSKVELEVRDLPEELSLSFNATCLNNEVIPGLKSCMGLKIGDTVSFSIEAKVRGCPQEKEKSFTIKPVGFKDSLIVQVTFDCDCACQAQAEPNSHRCNNGNGTFECGVCRCGPGWLGSQCECSEEDYRPSQQDECSPREGQPVCSQRGECLCGQCVCHSSDFGKITGKYCECDDFSCVRYKGEMCSGHGQCSCGDCLCDSDWTGYYCNCTTRTDTCMSSNGLLCSGRGKCECGSCVCIQPGSYGDTCEKCPTCPDACTFKKECVECKKFDRGALHDENTCNRYCRDEIESVKELKDTGKDAVNCTYKNEDDCVVRFQYYEDSSGKSILYVVEEPECPKGPD
chain 3: PCGPCSERRKHLFVQDPQTCKCSCKNTDSRCKARQLELNERTCRCDKPRR

The first assay covers variants of B1. The assay can be described thus: ELISA-type binding assay; HBD coated at 2.5 µg/ml; n=3; read off a plot. In general terms: In an ELISA, binding on a coated surface is turned into a signal by an enzyme label.
With chain 3 PCGPCSEAAAHLFVQDPQTCKCSCANTDSACKAAQLELNERTCRCDKPRR, the response is roughly 0.02 OD450.

On to chain 3 PCGPCSERRKHLFVQDPQTCKCSCANTDSACKAAQLELNERTCRCDKPRR, for which the response was roughly 0.3 OD450.

Regarding chain 3 PCGPCSEAAAHLFVQDPQTCKCSCKNTDSRCKARQLELNERTCRCDKPRR, the response is roughly 0.25 OD450.

Variants of B1 are the subject of another assay. The assay can be described thus: ELISA-type binding assay; HBD coated at 5 µg/ml (highest point of the curve); read off a plot.
As for chain 3 PCGPCSEAAAHLFVQDPQTCKCSCANTDSACKAAQLELNERTCRCDKPRR, the response is roughly 0.11 OD450.

Turning to chain 3 PCGPCSERRKHLFVQDPQTCKCSCANTDSACKAAQLELNERTCRCDKPRR, the response was roughly 1.1 OD450.

For chain 3 PCGPCSEAAAHLFVQDPQTCKCSCKNTDSRCKARQLELNERTCRCDKPRR, the response is roughly 0.78 OD450.
